Here are results for three substances from paper PMC8495200.

Assay in all cases: native gel or EMSA; Blue Native PAGE, purified recombinant non-tagged proteins in 1 x PBS, 1 mM DTT, 1 mM ATP; 4-16% Bis-Tris gels, cold room, Coomassie staining
In experiment [1] the target is UBXD9^384–573, GST tag cleaved (D. discoideum).
Experiment [2] has as its target UBXD9^261–573, GST tag cleaved (D. discoideum).
Experiment [3] deals with UBXD9^331–573, GST tag cleaved (D. discoideum).

On to “UBXD9^384–573, GST tag cleaved (domain or fragment)”, for which the stoichiometry N in experiment [1] is 6.

For “UBXD9^261–573, GST tag cleaved (domain or fragment)”, the stoichiometry N in experiment [2] was found to be 6.

On to “UBXD9^331–573, GST tag cleaved (domain or fragment)”, for which, in experiment [3], the stoichiometry N amounted to 6.
